Measured values as given in paper PMC7813410, “Intraperitoneal insulin administration in pigs: effect on circulating insulin and glucose levels” (BMJ Open Diabetes Research & Care, 2021).
Like-named read-outs stand apart in the source and are kept apart here.

Experiments:
pigs = experiment: Blood glucose after intraperitoneal insulin boluses in anesthetized pigs; format: in vivo, pig; settings: mean±SE
Procedure: In every stall, a heating lamp was provided.
(§1) The somatostatin analogs were injected 1 hour before the first insulin bolus of the day. 0.4 mg octreotide was injected intravenously and 0.3 mg pasireotide was injected subcutaneously. The octreotide injections were repeated hourly and the pasireotide injections were repeated every 3 hours during the trial.
To prevent hypoglycemia, a continuous venous glucose infusion was provided through the left internal jugular vein and was continued for the duration of the experiment. The blood glucose levels were kept in the range of 4.5–5.5 mmol/L before each insulin bolus was given.
In the first pig, we tested different glucose infusion rates to identify a suitable rate. In the remaining seven pigs, a constant glucose infusion rate of 8 g/hour was used throughout the experiments.
For both trials, arterial blood samples for glucose analysis were collected in heparinized syringes (LEO Pharma). Samples were analyzed on a Radiometer ABL 725 blood gas analyzer (Radiometer Medical, Brønshøj, Denmark). All blood samples were placed on ice immediately after extraction from the pigs. Most samples were analyzed consecutively, but some samples were stored on ice for a maximum of 20 min before analysis.
In the main trial, samples were collected 10, 5 and 1 min prior to the first somatostatin analog injection, every 10 min for the first hour after Sandostatin injection, every minute for the first 10 min after the insulin bolus, and every fifth minute thereafter for the next 110 min.
From the main trial, data from the last seven pigs were used for statistical analysis. We assumed the glucose levels at −5 min to be the baseline glucose levels at the start before each bolus (online supplemental figure S1).
Treatment and time were the sources of variation. […] Statistics were performed with GraphPad Prism V.8 Statistics.

[1] = From the text: We also performed an additional trial to investigate subcutaneous insulin dynamics and effect on blood glucose levels, performed under similar conditions. For more details, see online supplemental material section 'Additional trial'. In short, between May 2019 and January 2020, three juvenile, non-diabetic, cross-bred male pigs (50% Landswine, 50% Yorkshire) approximately 3 months of age weighing 39.5±4.3 kg were brought from the same local farmer and kept in the conditions as in the main trial.
In the additional trial, two pigs received 10 U subcutaneous insulin boluses and one pig received a 5 U subcutaneous insulin bolus. All subcutaneous insulin boluses were performed as the first bolus of the day.
Additionally, all pigs received an intraperitoneal glucagon bolus (150 µg) 40 min after the insulin bolus.
(§2) In the main trial, all pigs (n=7) received three insulin boluses (2, 5 and 10 U) in the upper right intraperitoneal space. In the additional trial, insulin boluses were injected into the subcutaneous tissues in the left side of the neck. Two pigs received 10 U boluses and one pig received a 5 U bolus.
(§3) In both trials, blood samples for insulin analysis were stored on ice for at least 10 min before centrifugation (10 min at 2.000× rpm in a refrigerated centrifuge). Plasma was collected from the samples immediately after centrifugation and transferred into empty Eppendorf Tubes and temporarily stored at −20°C. At the end of each trial day, plasma samples were stored at −80°C.
(§4) Plasma insulin was analyzed as singles by Iso-Insulin ELISA kit (10-1128-01, Mercodia, Uppsala, Sweden). Suppression of endogenous insulin secretion was verified by analyses of Porcine Insulin ELISA (10-1200-01, Mercodia) according to the manufacturer’s protocol. The results were converted from mU/L to pmol/L by a conversion factor 6, as recommended by the manufacturer. The lowest detectable insulin concentration for the Iso-Insulin ELISA kit was <3.0 mU/L (18 pmol/L) and for Porcine Insulin ELISA was <2.3 mU/L (13.8 pmol/L).

[2] = in vitro model; cited from earlier work
From the text: The liver is the major organ involved in glucose homeostasis.

[3] = remark: listed apart in the source
From the text: Between January 2017 and August 2018, eight juvenile, non-diabetic, cross-bred pigs (50% Landswine, 50% Yorkshire) approximately 3 months of age (one male (36.2 kg) and seven females (39.5±2.7 kg)) were brought from the same local farmer approximately 1 week before the trials and acclimatized to the staff and new environment. Whenever possible, the pigs were kept in groups in a common stall (11.2 m^2) with concrete floor covered with woodchips. In every stall, a heating lamp was provided. In the facility, a day-night photoperiod (night: 21:00–05:00, dawn: 05:00–07:00, day: 07:00–19:00, dusk: 19:00–21:00) was maintained at 22°C and a relative humidity of 45%±5%. The pigs were fed standard food (Format Vekst 100, Felleskjøpet, Norway) and fresh water was available ad libitum. Food was removed 17 hours before the start of the trial while water was available until anesthesia was initiated.
In the main trial, the first pig was used to obtain information about optimal infusion rate of glucose to maintain stable glucose levels throughout the trial days. The second pig was used to confirm the chosen infusion rate. The remaining six pigs were used to study the pharmacokinetics and pharmacodynamics of intraperitoneally delivered insulin boluses. However, all pigs received boluses of 2, 5 and 10 U of insulin (1 U/s) in the upper right quadrant of the intraperitoneal cavity. The order of insulin boluses for the first two pigs was 2, 5 and 10 U. The order of boluses for the last six pigs was randomized.[6] There were at least 2 hours and 30 min between each bolus.
At the start of every trial day, a fresh insulin analog (100 U/mL, NovoRapid, Novo Nordisk, Denmark) was inserted in an insulin pump (Animas Vibe).
as §2, §3, §4
Delta values collected from the main trial with different insulin boluses (2, 5 and 10 U) in the pigs were analyzed. In order to estimate possible significant differences in circulating insulin and blood glucose levels after IP insulin boluses, a two-way repeated measures analysis of variance was performed. Treatment and time were the sources of variation. Tukey’s multiple comparisons test was used for distinguishing comparisons between different insulin boluses. All non-measurable insulin values were set at 18 pmol/L. All treatments are compared as models; therefore, comparison between unequal groups is allowed. Statistics were performed with GraphPad Prism V.8 Statistics. All values are given as mean±SD, unless stated otherwise. Differences between the groups were considered significant if p≤0.05.

[4] = system: endogenous insulin secretion; experiment: Suppression of endogenous insulin secretion by somatostatin analogs (Porcine Insulin ELISA); format: in vivo, pig; settings: octreotide 0.4 mg IV hourly together with pasireotide 0.3 mg SC every 3 hours, pigs, no detectable levels
Procedure: To suppress the endogenous insulin and glucagon secretion, all pigs received the somatostatin analogs octreotide (Sandostatin 200 µg/mL, Novartis Europharm, UK) and pasireotide (Signifor 0.3 mg/mL, Novartis Europharm).
as §1

[5] = 5 U subcutaneous bolus, n=1 pig
[6] = 10 U subcutaneous boluses, n=2 pigs

In the case of “insulin: fresh insulin analog (100 U/mL, NovoRapid, Novo Nordisk, Denmark) delivered by insulin pump”, the “decrease of estimated mean blood glucose level after 5 U compared with 2 U intraperitoneal insulin boluses” value (pigs; 5 U vs 2 U IP bolus, anesthetized non-diabetic pigs, n=7, 120 min after bolus, glucose infusion 8 g/hour, 95% CI 0.31 to 0.65, p<0.0001) is reported as 0.48 ± 0.07 mmol/L, the “decrease of estimated mean blood glucose level after 10 U compared with 2 U intraperitoneal insulin boluses” value (pigs; 10 U vs 2 U IP bolus, anesthetized non-diabetic pigs, n=7, 120 min after bolus, glucose infusion 8 g/hour, 95% CI 0.44 to 0.79, p<0.0001) is reported as 0.61 ± 0.07 mmol/L and the “change of mean blood glucose level after 10 U compared with 5 U intraperitoneal insulin boluses” value (pigs; 10 U vs 5 U IP bolus, n=7 pigs, 95% CI −0.04 to 0.30, p=0.184, not different) is reported as 0.13 ± 0.07 mmol/L. The “time after bolus at which insulin level was increased” value [1, 5] was 5 min, the “time at which insulin levels were still elevated” value [1, 5] was 140 min and the “time after boluses at which mean insulin level was increased” value [1, 6] was 5 min. The “time at which insulin levels were still elevated” value [1, 6] was 140 min, the “mean circulating insulin level after subcutaneous compared with intraperitoneal insulin boluses” value ([1]; subcutaneous (5 U n=1, 10 U n=2) vs IP boluses (n=7), p value not calculated) was “increased more” and the hepatic first-pass effect [2] was “up to 80%”. The “effect on mean circulating insulin level” value ([3]; 2 U IP bolus, n=7 pigs) was “did not increase”, the “effect on mean circulating insulin level” value ([3]; 5 U IP bolus, n=7 pigs) was “did not increase” and the “mean circulating insulin levels after 5 U compared with 2 U intraperitoneal insulin boluses” value ([3]; 5 U vs 2 U IP bolus, n=7 pigs, p=0.89) was “not different”. The “time after which mean circulating insulin level was close to baseline” value ([3]; 10 U IP bolus, n=7 pigs) was 80 min, the “time after which mean insulin level started to increase” value ([3]; 10 U IP bolus, n=7 pigs) was 10 min and the “increase of mean circulating insulin level after 10 U compared with 2 U intraperitoneal insulin boluses” value ([3]; 10 U vs 2 U IP bolus, n=7 pigs, plasma, Iso-Insulin ELISA, mean±SE, 95% CI 1.99 to 5.37, p<0.0001) was 7.89 ± 1.07 pmol/L. The “increase of mean circulating insulin level after 10 U compared with 5 U intraperitoneal insulin boluses” value ([3]; 10 U vs 5 U IP bolus, n=7 pigs, plasma, Iso-Insulin ELISA, mean±SE, 95% CI 5.86 to 10.89, p<0.0001) was 8.37 ± 1.07 pmol/L and the “first-pass effect in the liver” value ([3]; after the smaller (2 and 5 U) IP insulin boluses, inferred from circulating insulin levels in pigs) was roughly 100%.

With octreotide the “endogenous insulin levels during the experiments” value [4] was less than 13.8 pmol/L.

With pasireotide the “endogenous insulin levels during the experiments” value [4] was less than 13.8 pmol/L.
